The labels stand for the following.
B1: Msh2–Msh3 (complex, S. cerevisiae)
chain 1: MSSTRPELKFSDVSEERNFYKKYTGLPKKPLKTIRLVDKGDYYTVIGSDAIFVADSVYHTQSVLKNCQLDPVTAKNFHEPTKYVTVSLQVLATLLKLCLLDLGYKVEIYDKGWKLIKSASPGNIEQVNELMNMNIDSSIIIASLKVQWNSQDGNCIIGVAFIDTTAYKVGMLDIVDNEVYSNLESFLIQLGVKECLVQDLTSNSNSNAEMQKVINVIDRCGCVVTLLKNSEFSEKDVELDLTKLLGDDLALSLPQKYSKLSMGACNALIGYLQLLSEQDQVGKYELVEHKLKEFMKLDASAIKALNLFPQGPQNPFGSNNLAVSGFTSAGNSGKVTSLFQLLNHCKTNAGVRLLNEWLKQPLTNIDEINKRHDLVDYLIDQIELRQMLTSEYLPMIPDIRRLTKKLNKRGNLEDVLKIYQFSKRIPEIVQVFTSFLEDDSPTEPVNELVRSVWLAPLSHHVEPLSKFEEMVETTVDLDAYEENNEFMIKVEFNEELGKIRSKLDTLRDEIHSIHLDSAEDLGFDPDKKLKLENHHLHGWCMRLTRNDAKELRKHKKYIELSTVKAGIFFSTKQLKSIANETNILQKEYDKQQSALVREIINITLTYTPVFEKLSLVLAHLDVIASFAHTSSYAPIPYIRPKLHPMDSERRTHLISSRHPVLEMQDDISFISNDVTLESGKGDFLIITGPNMGGKSTYIRQVGVISLMAQIGCFVPCEEAEIAIVDAILCRVGAGDSQLKGVSTFMVEILETASILKNASKNSLIIVDELGRGTSTYDGFGLAWAIAEHIASKIGCFALFATHFHELTELSEKLPNVKNMHVVAHIEKNLKEQKHDDEDITLLYKVEPGISDQSFGIHVAEVVQFPEKIVKMAKRKANELDDLKTNNEDLKKAKLSLQEVNEGNIRLKALLKEWIRKVKEEGLHDPSKITEEASQHKIQELLRAIANEPEKENDNYLKYIKALLL
chain 2: MAGQPTISRFFKKAVKSELTHKQEQEVAVGNGAGSESICLDTDEEDNLSSVASTTVTNDSFPLKGSVSSKNSKNSEKTSGTSTTFNDIDFAKKLDRIMKRRSDENVEAEDDEEEGEEDFVKKKARKSPTAKLTPLDKQVKDLKMHHRDKVLVIRVGYKYKCFAEDAVTVSRILHIKLVPGKLTIDESNPQDCNHRQFAYCSFPDVRLNVHLERLVHHNLKVAVVEQAETSAIKKHDPGASKSSVFERKISNVFTKATFGVNSTFVLRGKRILGDTNSIWALSRDVHQGKVAKYSLISVNLNNGEVVYDEFEEPNLADEKLQIRIKYLQPIEVLVNTDDLPLHVAKFFKDISCPLIHKQEYDLEDHVVQAIKVMNEKIQLSPSLIRLVSKLYSHMVEYNNEQVMLIPSIYSPFASKIHMLLDPNSLQSLDIFTHDGGKGSLFWLLDHTRTSFGLRMLREWILKPLVDVHQIEERLDAIECITSEINNSIFFESLNQMLNHTPDLLRTLNRIMYGTTSRKEVYFYLKQITSFVDHFKMHQSYLSEHFKSSDGRIGKQSPLLFRLFSELNELLSTTQLPHFLTMINVSAVMEKNSDKQVMDFFNLNNYDCSEGIIKIQRESESVRSQLKEELAEIRKYLKRPYLNFRDEVDYLIEVKNSQIKDLPDDWIKVNNTKMVSRFTTPRTQKLTQKLEYYKDLLIRESELQYKEFLNKITAEYTELRKITLNLAQYDCILSLAATSCNVNYVRPTFVNGQQAIIAKNARNPIIESLDVHYVPNDIMMSPENGKINIITGPNMGGKSSYIRQVALLTIMAQIGSFVPAEEIRLSIFENVLTRIGAHDDIINGDSTFKVEMLDILHILKNCNKRSLLLLDEVGRGTGTHDGIAISYALIKYFSELSDCPLILFTTHFPMLGEIKSPLIRNYHMDYVEEQKTGEDWMSVIFLYKLKKGLTYNSYGMNVAKLARLDKDIINRAFSISEELRKESINEDALKLFSSLKRILKSDNITATDKLAKLLSLDIH
B2: 6xHis–Saw1 (natural protein, S. cerevisiae, UniProt P39735 1-261, looked up)
chain: MAPSIATVKIARDMVLPLRIFVNRKQILQTNDKTSNKSNATIFEAPLLSNNSIICLKSPNTRIYLSQQDKKNLCDEIKEDLLLIVYELASPEIISSVLSKIRVGHSTDFQINVLPKLFAGADTDNAVTSHIQSVTRLAKFKYKLHYKHKWELDIFINSIKKIANLRHYLMFQTLTLNGFSLNAGPKTLLARKIEKQPQVPNLLIENGDADALDTPVEEDIKPVIEFMYKPVINLGEIIDVHVLHRPRRHKVRTQSKQPQEE

Common to all, as to test: co-IP
Assay [1] deals with T1, His–rad1R218A–Rad10 (S. cerevisiae, UniProt P06777 1-1100; P06838 1-210, R218A).
T1 sequence (looked up) 1: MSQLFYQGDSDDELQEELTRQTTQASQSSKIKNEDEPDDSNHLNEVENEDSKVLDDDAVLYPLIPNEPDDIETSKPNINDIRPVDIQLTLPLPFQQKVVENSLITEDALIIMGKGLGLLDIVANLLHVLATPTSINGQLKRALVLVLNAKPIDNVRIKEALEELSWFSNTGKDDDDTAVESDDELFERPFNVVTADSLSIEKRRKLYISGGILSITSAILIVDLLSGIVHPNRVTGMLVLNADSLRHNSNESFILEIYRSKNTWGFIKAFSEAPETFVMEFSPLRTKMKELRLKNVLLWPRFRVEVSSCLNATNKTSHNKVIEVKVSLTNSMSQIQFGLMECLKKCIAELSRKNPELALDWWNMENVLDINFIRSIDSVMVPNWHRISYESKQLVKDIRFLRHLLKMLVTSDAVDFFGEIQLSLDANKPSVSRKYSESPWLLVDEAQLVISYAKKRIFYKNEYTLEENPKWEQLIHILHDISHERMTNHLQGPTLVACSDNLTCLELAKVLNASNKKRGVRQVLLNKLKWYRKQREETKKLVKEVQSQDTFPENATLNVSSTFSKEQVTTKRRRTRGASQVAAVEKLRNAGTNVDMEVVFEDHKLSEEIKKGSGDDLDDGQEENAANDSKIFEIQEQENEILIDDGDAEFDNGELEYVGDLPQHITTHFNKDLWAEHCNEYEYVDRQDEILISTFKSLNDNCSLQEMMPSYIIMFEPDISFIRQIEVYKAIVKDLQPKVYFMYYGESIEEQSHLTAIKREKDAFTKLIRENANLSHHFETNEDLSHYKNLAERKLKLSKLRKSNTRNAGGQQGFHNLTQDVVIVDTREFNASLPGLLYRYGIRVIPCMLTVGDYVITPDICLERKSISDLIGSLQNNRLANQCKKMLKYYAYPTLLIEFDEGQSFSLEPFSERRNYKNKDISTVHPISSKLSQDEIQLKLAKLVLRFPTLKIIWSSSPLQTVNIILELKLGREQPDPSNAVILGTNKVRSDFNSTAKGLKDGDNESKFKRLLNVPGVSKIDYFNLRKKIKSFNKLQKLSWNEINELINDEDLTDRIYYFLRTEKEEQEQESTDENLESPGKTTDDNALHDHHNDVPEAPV
T1 sequence (looked up) 2: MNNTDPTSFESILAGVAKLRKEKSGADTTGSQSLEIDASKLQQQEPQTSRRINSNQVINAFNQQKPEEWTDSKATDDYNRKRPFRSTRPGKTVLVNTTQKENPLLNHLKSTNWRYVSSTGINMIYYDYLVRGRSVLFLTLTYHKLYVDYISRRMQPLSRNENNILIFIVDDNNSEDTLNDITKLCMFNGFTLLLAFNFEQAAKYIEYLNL

Assay [2] has as its target T2, His–Rad1–Rad10 (S. cerevisiae, UniProt P06777 1-1100; P06838 1-210).
T2 sequence (looked up) 1: T1 sequence (looked up) 1 with A218R
T2 sequence (looked up) 2: T1 sequence (looked up) 2

Assay [3] addresses B1.

Numbering of substitutions follows the chain as printed.

As to B1, in assay [1], the “fold enhancement of the interaction by non-specific DNA” value was around 2 fold.
Turning to B2, the binding result in assay [2] and in assay [3] was “binds” throughout.

The values are drawn from paper PMC6007489 (Nucleic Acids Research, 2018).
